Assay: soluble on expression in E. coli; label from the status in PepcDB or PDB records
With “MAHHHHHHMSDAPHRQSSTPASSFLPPEPLCVADILSELLPFLLAAPQPRDGCPPSSSAQEPAESPVLLIPPTVASEHRVQVSIRGRRYETALEVALTYSLFFFVFFHWPFSEEDESSDAAGCASDVAHVKRAPRSVGDAVMAAASARDLPKEAHLLRHYTRVVEPVLRVFLDHWAAPLDAAAAAQGEGESAARAETAEAGDAARLPLLPPLPHPVRIAYDASTRVWKFEFAARLTAGAAAEARSGRQCDDSSAAVSLAAADGCAAVATDKLNNSPFLLLQSEYMGLLLVFLRRCAKVRAERRAAGEGAAACALAPYPSLPIRWEEMNYDEQLSVVQLIRRFGVVSLARTYTRPTAPETTSLYIGEEAAAATARVKVEGDACSLRARASESMGKQQQKIQQAASVAVDTAEVVKKERCINEDDFDGLVLSAKGCARCGMAEHSTEECHF” the “soluble on expression in E. coli” value was “soluble”. With “MAHHHHHHMSDEGFEDLFILDTDPEELYEELGPIGVGNYGSVIKARNRHTQEITAIKLVLLVDKDERDFVQREISILKHCRHPNIVHYYGAHKSLSKLWIVMEYCEGGSIDMVYKVLRHPLPEPLIAYVCRQVLLGLQYLHANRKIHRDIKGGNILLTRDGGVKLADFGVSTELSHSLSRRNTFVGTLLWMAPEAILELDYDEKADLWSLGITLIEMAEGAPPYIDTHPARALFMIPKMDPPSLQDKERWSPQMTLFLKRLLTKDHNARPTATTMLNDPFVLPENIGTQEQLKAVIDEVLAKKASIDPQRMRDYTDSSATFVERTSSDGGGGDDHSTDSRDEVQPHLTAKGLTNAPANSIEALDGAGTHLFFQDGTLLPLPMLYTQDISFDELCVGEELNGPFSLPVPSVESLLVPPEQQSTACHGGEALAHTMHVTAKLKEMLYYHKQLPYCRGLTDAEAAKSREMQLKYGSVLKSVYRL” the “soluble on expression in E. coli” value was “not soluble”. With “MAHHHHHHMSEINIIKAFGILLCRLKKYNPVTTGDINKFEFLFLKASYADKHWTPPKGLHENNESGLETAVRETLEETGINKDKYKLLNYQKTLKYNVKDKPKETTYYLAMLLNNEENVILSDEHTDYKWIGSHESDTYNLPESLADLLKEAEEFLNKEQL” the “soluble on expression in E. coli” value was “soluble”. In the case of “MAHHHHHHMSIPLENWGQLKLSVAKPELKSEDGGDVKRDECVLELLALPKGKAKDNPNYVPRPILSIPISAIASASGTTKNDVSLTMRPAATAGAEDLELRSIRFAVPNVCVGYEETEMAGKVILQDIQSSMMQYQEQFLQRHGSGGQGGKLLALAAMGSGQAKHTDEVVVATFDDVLLSYPSGKYKIVISNYNVVLEDKKKGTSSGLLSFSLSEIQNLFLCDVPVYFSPTEEVDANSLPQYVVLILKNPLKIRSTAYNHVVISCPAGLTLDEEHPWRCELKTQDEINKTLQLPPSKEGEEPPLVPTMSGRVSDILTRTFKAIAKVPAYGGINKEYKSVLTSHSQSSMRCLFHGAEGLLYIVNSGFLYLHRPATRILFNEVARVELDESESGQATFQLTVFATGAKGDDKYVFSGIAKEEKNGLLSYLATKVKVVHTGGDAMESDDDDEKDDTSDEDESDDSDYDDSDTEDDDSSDDGGDHDSSRKRKREDKKHEKDKKHKKDKKHKKDKKHKKDKKHKKDKKHKKDKKHKKDKKHKKDRKHKKDKHEKSDA”, the “soluble on expression in E. coli” value is reported as “soluble”. In the case of “MAHHHHHHMSKDGNCGGCSAPWGKMPQSPMTPLSDARDSPTAPLCSHSAFSKVNKESSEEESFVVGKYQTSMCPICLESFTHENPAVVVGCGHSFHLQCVEDWRQRSPICPVCMIVLRGDGLPMHTGRQSQRPSEVSPSQRKGRATTSTMTSASSGTTFMVTAGGVHGRVLDTKPPSVVNASAGVEGSGSVVDVGNVSFLSRVRRCMKFCCTCEDDL”, the “soluble on expression in E. coli” value is reported as “not soluble”. For “MAHHHHHHMSLNLAEAADERSQREMEKYLVERVAGQGTFGTVQLAREKNTGVNVAIKKVIQDPRFKNRELQIMQDLSRLRHPNIVLLKNYFYTVLGDHRHNDVYLNVVMEFVPDTLHRVCRAYYRRLASPPMILVKVFMYQLLRGIACLHLPAVNVCHRDIKPHNVLVDESTGDLKLCDFGSAKKLSPSEPNVAYICSRYYRAPELIFGNQYYSTAVDVWSVGCIFAEMLLGEPIFCGENTSGQLREIVRVLGRPSREELHKLSTSNVELNVPTNKSTPWEDVFKRPLPAEVYDLCAKIFKYLPEQRITPLEAICHPFFDELHDATVKLPSGNALPAHLFTFLPEEINEMTEAQRSQLVQK”, the “soluble on expression in E. coli” value was “soluble”. In the case of “MAHHHHHHMSQLKIKRGNFLFTSESVNEGHPDKICDQISDAILDSCLREDPYSKVACEVCAKKNYIFIFGEITTKAKVNYDKVTRDVLKHIGYDDESKGLDYKTAEIKVSIDEQSPDIAQCVHENRSPELIGAGDQGIMFGYATDETENYMPLTHHYATLLGKRLTEVRKLGILPYLGPDGKTQITIEYKNKGSCGGHLEPLRVHTVLISTQHAEDIKYEQLKTDLMENVIKYVIPEKLLDNETLYYLNPSGKFVLGGPAADAGLTGRKIICDTYGGWGAHGGGAFSGKDASKVDRSAAYYLRFIAKSLVANKFCRRVLVQASYSIGIANPISLNVNSYGTVSTGYTDYDLEQIILRNFDLRPGFIIQELKLTEPVFSKTSAYGHFGREGDTFTWEKIKDLSHEKNALKN”, the “soluble on expression in E. coli” value is reported as “soluble”. In the case of “MAHHHHHHMSSITGAAYSSPEYTHCIRDSRFRHNVYEPEADTFLFLDALDKDAELLRSIRPDRCVEVGCGSGAVITHLRCLLMPSVAAAATQELEAETPELCCGASGIRSAVGGPMFCAVDVNPLALEATAITWTETLLKYFRETVLAAFYERIFQSAVPTSLAAPVVLSAEGVSPPLTRVDADDPTSSALSASTFCLHRFHGDLLNALPRGNSAPALFDVVLFNPPYVPTSLKELQDAITQRDVITTAWCGGPRGRVVLDRFLRQLPSVLSRRGVCYVVLIKENNATDVVAFAQAAFREHLRCSGTETVKDEDDVLEASEVAARYTGEHLSVYRLRYVPRFQTP”, the “soluble on expression in E. coli” value is reported as “not soluble”. In the case of “MAHHHHHHMSSSAEEKEAKKQEELRLAGSDSEGVRAAVKAQRELKKKRDALRKVQKKIRSGGSDAEVAAAIEQEAALLAEIGHLEALRGASSAPSTAHVAAASFTSTPATAAASPGALVTVATNKSSGAKAARSGEPAKEITAEERAASAKRLHDLVQGAMDANRLKCLHVLPRDAVVHPRIAEVAVLMEQMLLVGGSARALALISAFRELSRTTTVLAVPSLNEVNTTAFEKLIQINFDFVRRKREASAGMRHVKDVLVRRFVALRDEVIHPKPNMVDLIKDLGGPREVTLKILDAIEAELKMSFKSIVEDRSLPYVSSSDTILVFGRSSLVEYILLSRSRDPQCKPKRVIVIDSAPLFEGRQLAEKLSSAGIDVTYGLITACCTLMPKCTRVFMGASAVLQNGDMFGRCGMALVAACAKLFRKPVLCFSESYKFVPEVWVGNLAQNTKLADMRPAAEVHGSDTGTHSPLVYPTPPTLSPPQLRASGGWGTPARGADFLTRSGGGGAVPFSSSASGYLYDLTPASYIDMIICEMGCLHTSAIVAAIKDREGRDTSQLLNLVRG”, the “soluble on expression in E. coli” value is reported as “soluble”. With “MAHHHHHHMSTHIERLQSEDEVAFKLKGEIAAIEKEIKSWFIKRRLNMELNYSLHNLFTNYNIVGLSINKKIDLKEKMLWHDIVNGKPTLEDTLSLDAKEYKADVYRKMWENSTTTDNPCRLVGSIFFRCLKGNYQLTEQEREGTCMHSFLNFTHCRKALKLQQANNIRTALTKQSAEDTQAKALFERRSALLGKLTGSAP” the “soluble on expression in E. coli” value was “not soluble”. With “MAHHHHHHMSVFEARQKVYATLHGTFHAAIVQEVAVDAETGQYLYYVHYVEQDSRMDCWLPASELKERRQGRQASKQQTNKSGGGGITTRGQSRLVAGKEDEVSRGPNTPTSSAKRSNLQNCVKVSTTRARKDSSFFSRPKNIHSICMGPYEVATWYFSPYHLARPQIQQGLKQNAELFSGKMELQLRQENKKSAFQTAVVPTSFVLHICPFCLHPFTAHEDVVRHLQIVCPRHPPGNEIYRDPVRQLVVLEMDAVVEPVFCEHLALLSKLFLEHKALDHDMTPFLFYVLCAVQPHGLEVLGYFSKEKQSPEMYNLSCILVLPQFQSRGIGRFLIELSYELSRREGRIGSPEKPLSDLGEKLYLGYWGDVIVSALARAIEENHCATLEYLVQATYLSQADVLRTLQYLRLLNGTQIVVSEESIERCYSRRLHRERSGKNYVFYPHLLSWSPHMYYELKEQDVAPPIYVTQSEELEQNAASKGQRVF” the “soluble on expression in E. coli” value was “not soluble”. With “MAHHHHHHMSWRVSCKTALLDELFTYIAGKTDANTLQKECVLALPQLETLAKMLGFSLDDMSMYRLAWSWSCEAPLCIRKSEFVNGMNAICSGVKLSATATSSTCSASPVKSPKKEFEPILLALRNHVETLDGALRGDVTKFRHFYRFIYKWVQSPLTMERNMGQVGMSIETAVELWRMLFPHYREFKRLDDWITFCMSKKLFPHGIISRDLWEQLLEFTFVTDYSKYDVSDAWPSAMDDFVEYVKSKV” the “soluble on expression in E. coli” value was “not soluble”. For “MAHHHHHHMTDIAHGSRYDRDAAISTAAEQVAAGQYAENKPRAIMFVNKRPVEIIPQEENVLEVLEREGITVPKFCYHPILSVAGNCRMCMVQVDGTQNIVVACSTVALPGMSIITDSRLVRDAREGNVELILINHPNDCPICEQATNCDLQNVSMNYGTDIPRYREDKKAVEDFYFDPQTRVVLNRCIHCTRCIRFLNEHAQDFNLGQIGRGGLSEISTFLDELEVKTDNNMPVSQLCPVGKLYMGDADENNDIVRELEAAGATA”, the “soluble on expression in E. coli” value was “not soluble”. In the case of “MAHHHHHHMTEPVRILVRRDEITVDSIMQYFVAVDEEKNKFETLCDLYDTLTIAHAVIFCNTRKKVEQLAKKMRKEKFSVSCMHGDMPQAERDEIMRNFREGKSRVLISTDLWSRGIDVEQVSLVLNYDLPFSREQYIHRIGRTGRMGRKGLAISFVKHDELRLLRDVEQFYATQIEELPANIADQF”, the “soluble on expression in E. coli” value is reported as “not soluble”. With “MAHHHHHHMTESTHLIDAGCFISQMNELVLIDPLYMNYVITNYFNYLINDKNELLPKESLNGVYFENAKPGLWSSFAIKEKNIFLPNSQKMEQNMIDLGIDKNYGNEIITSFACFNNTEFMHEYLTVEKLNELKWEKFESNINCIGNHNNGNIYKSQSKEEDKPINFSNYFTNILTVESGQVGLFCTESIKNCTNALLEKYEIYDIKNKEELDNFFNKNMNDLYPWYNKICNLTLSSSITIIDYIDMPLGSVCMSGSDCVSNYLCEVVKDDITGEIWAIRVNFFNPFK” the “soluble on expression in E. coli” value was “soluble”. For “MAHHHHHHMTEYEEKERKTSLAALRRFVKHCGPTRFTFITRIPLSRNTNQVNGTLLLENGDLTVCAQDMKANIADIREDIASFSVPQHQDFIRAFEEAKNMLKNELAALQEHKSILMVQYEMARP”, the “soluble on expression in E. coli” value was “not soluble”. In the case of “MAHHHHHHMTFSVKGGSYSSSHPSPAMHPYVSPSLLPQSHGQQAPPSFSLGDEQYVGVPKRVGVDPTKYKTTICRNWEQTGTCAFRGCTFAHGVEELRAPLRPDGHTPVLRPQHISPGSTPPLRASQPPPPPSSGHYTLEQLLDMLYKEVLHQRELVTVHVEANTTLEGMLRREQAQHDASKKQLEEKTQQCELFARELFARNQQLRKAADSSPEIKELLDQWETQLASFSEADVKKDDVFHTATATSSTDDGGDSGKEYESARIEELLRALQR”, the “soluble on expression in E. coli” value is reported as “not soluble”. In the case of “MAHHHHHHMTTMARVDETLARFKGKSPRDSYKQVCGELDVHMQREIYAALPEKPMAWHHIYTLDLEKALLGTKGCMAMLPLITVSTSMRKLSLRSCGLSDEFVIQLCAVLQSHPSLRSVDISDNELVTVYSAPHIISVMRNNSNMVLFDVYNTHVGSNVGDIIAKLGQRNLDNVLHYYEDRYFRMKNLFNYMDADGTGWVVLKSLVLNCPYPVLQEQFVERIATKQPRKRSDNTISINTFLQLVYMNYKTEAEIGTYSNKTIDEPYVFMVANWKQLLYAVERYNARAAAMGDGQGPHPPVQLPDNFHRWRLRDYIITPDDADALVEGAVQLIEHSSAMAEGEPELNESGERAEPDAEVDSDKETAENAAEAAPLVIPITILLRAAKSVLVLPPSVAKPSYSFYTDRDAAYVPEILRNGSRLFSVSRLSCLFSGGASTTGDSASSPDVLQDSADRPHTFSLPASVVKMVVDFFNKEHKKLPTKKQSMIPDSPQTRRDKAMEKAAIPVPTFLSAEFVSDLERVCPRFLADYYSRHALLIEDGTITLQEMVNVLDEMYAQCRIDRIISLADIKAMPDPMKDKSLVSFVTAHFADRDEDISFLEPFNDVVAY”, the “soluble on expression in E. coli” value is reported as “soluble”.
